Laboratory results reported in patent publication US20130296242A1, “MEDICATION AND THERAPY TREATING OF CHOROIDAL NEOVASCULARIZATION” (NATIONAL SUN YAT-SEN UNIVERSITY, priority 2012, published 2013).
No end group written: not given here.

Test: Solubility of VS fragments in water
Format: physicochemical
Method: Accordingly, the VS48 is apt to be dissolved in a solvent directly without any assistance of solubilizers (such as a tag protein, TRX) and with no sediments being produced. The solvent can be any solutions comprising similar osmotic pressure to body's liquid of organisms (such as plasma), for example 0.85-0.9% saline. Preferably, the solvent is 0.85-0.90% saline, which is dramatically stable as store and is capable of being stored for one year under 4° C.

GPDICGPGTKKVHVIFNYKGKNVLINKDIRCKDDEFTHLYTLIVRPDN (cysteines drawn unpaired) [VS48]
solubility: 1000 µg/mL
